The record followed here is paper PMC5111884, “NPAS1-ARNT and NPAS3-ARNT crystal structures implicate the bHLH-PAS family as multi-ligand binding transcription factors”.

One series addresses NPAS3;ARNT (mouse;mouse?, UniProt Q9QZQ0;P53762 56-455;82-464, |). The experiment in a line: fluorescence anisotropy; FP: 2 nM DNA, 20 mM Tris pH 8.0, 50 mM NaCl, 10 mM DTT, 30 min, temperature not stated (DNA annealed in 10 mM Tris pH 7.5, 1 mM EDTA, 2 mM MgCl2). The conditions noted are these: protein: recombinant;recombinant; tags: vector pSJ2; copies: 1;1; blunt. For orientation: Polarisation of emitted light reports the rotation of a fluorescent probe.

For the next series, the target named is NPAS1;ARNT (mouse;mouse?, UniProt A2RSH6;P53762 43-423;82-464, |). Described as above. The conditions noted are these: protein: recombinant;recombinant; tags: vector pSJ2; copies: 1;1; blunt.

By Kd is commonly meant a measure of binding affinity in units of concentration.

Sequence of NPAS1;ARNT (chain, as listed by the source |, chain 1 of 2): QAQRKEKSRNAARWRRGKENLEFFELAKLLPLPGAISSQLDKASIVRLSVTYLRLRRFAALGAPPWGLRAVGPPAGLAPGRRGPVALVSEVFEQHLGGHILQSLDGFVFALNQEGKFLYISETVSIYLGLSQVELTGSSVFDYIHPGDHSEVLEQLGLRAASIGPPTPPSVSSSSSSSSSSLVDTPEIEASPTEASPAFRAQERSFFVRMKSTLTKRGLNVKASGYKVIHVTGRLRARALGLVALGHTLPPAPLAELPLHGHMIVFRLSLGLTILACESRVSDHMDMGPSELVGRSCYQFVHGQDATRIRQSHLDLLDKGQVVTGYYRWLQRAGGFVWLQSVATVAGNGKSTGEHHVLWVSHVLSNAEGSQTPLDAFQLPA
Sequence of NPAS1;ARNT (P53762 82-464, chain 2 of 2): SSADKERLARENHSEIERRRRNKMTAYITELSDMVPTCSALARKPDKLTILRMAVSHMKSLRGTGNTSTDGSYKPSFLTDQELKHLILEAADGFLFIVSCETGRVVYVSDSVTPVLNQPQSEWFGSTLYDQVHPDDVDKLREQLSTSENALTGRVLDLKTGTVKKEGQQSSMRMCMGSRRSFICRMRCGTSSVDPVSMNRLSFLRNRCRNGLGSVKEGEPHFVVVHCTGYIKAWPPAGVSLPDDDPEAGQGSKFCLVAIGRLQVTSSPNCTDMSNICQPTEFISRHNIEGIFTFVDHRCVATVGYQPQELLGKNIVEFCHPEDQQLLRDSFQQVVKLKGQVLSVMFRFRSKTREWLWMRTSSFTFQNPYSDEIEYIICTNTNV
Sequence of NPAS3;ARNT (Q9QZQ0 56-455, chain 1 of 2): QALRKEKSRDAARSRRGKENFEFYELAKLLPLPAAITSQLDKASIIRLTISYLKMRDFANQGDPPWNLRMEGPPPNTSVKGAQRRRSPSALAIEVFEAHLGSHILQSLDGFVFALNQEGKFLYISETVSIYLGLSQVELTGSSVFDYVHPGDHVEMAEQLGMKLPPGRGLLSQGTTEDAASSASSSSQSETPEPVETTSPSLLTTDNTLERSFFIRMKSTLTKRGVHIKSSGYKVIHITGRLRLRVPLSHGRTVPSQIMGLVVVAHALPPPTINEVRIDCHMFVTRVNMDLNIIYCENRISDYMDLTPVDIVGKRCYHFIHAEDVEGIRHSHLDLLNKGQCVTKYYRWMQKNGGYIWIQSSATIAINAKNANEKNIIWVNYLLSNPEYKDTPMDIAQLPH
Sequence of NPAS3;ARNT (P53762 82-464, chain 2 of 2): as the sequence (P53762 82-464, chain 2 of 2) above

B1: HRE 21-mer (FP probe) (dsDNA)
DNA 1: GGCTGCGTACGTGCGGGTCGT
DNA 2: ACGACCCGCACGTACGCAGCC
In the case of B1, the dissociation constant Kd in the series with NPAS3;ARNT came to 17.5 ± 1.1 nM; with NPAS1;ARNT it was 16.3 ± 1.1 nM.
